Reference: publication PMC9132996

tested on: PutA (proline utilization A) (Ralstonia solanacearum GMI1000); assay: MST; conditions: room temperature 30 min, buffer not stated

epsA promoter 336 bp and phcB promoter 327 bp are within 1.5-fold of each other in Kd: 10.7 nM for the first, 13 nM for the second.

solI promoter 324 bp and trpEG promoter 291 bp are within 1.5-fold of each other in Kd: 12.7 nM for the first, 17.1 nM for the second.
